According to article PMC7272049 (2020):

Assays:
Test in all cases: FACS
mPD-L1 D122A mCherry = mPD-L1 D122A mCherry (mouse, UniProt Q9EP73 19-290, D122A)
mPD-L1 K124A mCherry = mPD-L1 K124A mCherry (mouse, UniProt Q9EP73 19-290, K124A)
mPD-L1 Y123R mCherry = mPD-L1 Y123R mCherry (mouse, UniProt Q9EP73 19-290, Y123R)
mPD-L1 R125A mCherry = mPD-L1 R125A mCherry (mouse, UniProt Q9EP73 19-290, R125A)
D28R = D28R (Mus musculus)
mPD-L1 G119D mCherry = mPD-L1 G119D mCherry (mouse, UniProt Q9EP73 19-290, G119D)
mPD-L1 G119D mCherry, sequence (Q9EP73 19-290 G119D): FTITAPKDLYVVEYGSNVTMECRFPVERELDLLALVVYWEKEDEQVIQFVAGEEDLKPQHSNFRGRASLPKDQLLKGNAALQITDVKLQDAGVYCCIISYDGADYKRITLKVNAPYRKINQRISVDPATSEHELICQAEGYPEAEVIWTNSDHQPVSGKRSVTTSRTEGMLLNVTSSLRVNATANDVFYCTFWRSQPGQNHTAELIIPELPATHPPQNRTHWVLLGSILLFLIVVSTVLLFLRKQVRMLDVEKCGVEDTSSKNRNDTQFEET

mPD-L1 G120D mCherry = mPD-L1 G120D mCherry (mouse, UniProt Q9EP73 19-290, G120D)
mPD-L1 G120D mCherry, sequence (Q9EP73 19-290 G120D): as the sequence (Q9EP73 19-290 G119D) above, with D101G, G102D counted along it

WT mPD-L1 mCherry = WT mPD-L1 mCherry (mouse, UniProt Q9EP73 19-290)
WT mPD-L1 mCherry, sequence (Q9EP73 19-290): as the sequence (Q9EP73 19-290 G119D) above, with D101G counted along it

mPD-L1 Y56A mCherry = mPD-L1 Y56A mCherry (mouse, UniProt Q9EP73 19-290, Y56A)
mPD-L1 Y56A mCherry, sequence (Q9EP73 19-290 Y56A): as the sequence (Q9EP73 19-290 G119D) above, with Y38A, D101G counted along it

mPD-L1 D49R mCherry = mPD-L1 D49R mCherry (mouse, UniProt Q9EP73 19-290, D49R)
mPD-L1 D49R mCherry, sequence (Q9EP73 19-290 D49R): as the sequence (Q9EP73 19-290 G119D) above, with D31R, D101G counted along it

D28R (Mus musculus), sequence (chain, as listed by the source D28R): as the sequence (Q9EP73 19-290 G119D) above, with D8R, D101G counted along it
mPD-L1 K124A mCherry, sequence (Q9EP73 19-290 K124A): as the sequence (Q9EP73 19-290 G119D) above, with D101G, K106A counted along it
mPD-L1 R125A mCherry, sequence (Q9EP73 19-290 R125A): as the sequence (Q9EP73 19-290 G119D) above, with D101G, R107A counted along it
mPD-L1 D122A mCherry, sequence (Q9EP73 19-290 D122A): as the sequence (Q9EP73 19-290 G119D) above, with D101G, D104A counted along it
mPD-L1 Y123R mCherry, sequence (Q9EP73 19-290 Y123R): as the sequence (Q9EP73 19-290 G119D) above, with D101G, Y105R counted along it

B1: mB7-1 mIgG2a (Fc fusion)
chain: VDEQLSKSVKDKVLLPCRYNSPHEDESEDRIYWQKHDKVVLSVIAGKLKVWPEYKNRTLYDNTTYSLIILGLVLSDRGTYSCVVQKKERGTYEVKHLALVKLSIKADFSTPNITESGNPSADTKRITCFASGGFPKPRFSWLENGRELPGINTTISQDPESELYTISSQLDFNTTRNHTIKCLIKYGDAHVSEDFTWEKPPEDPPDSKN
Q: How did the EC50 (mPD-L1 D122A mCherry) turn out when B1 was run?
A: The EC50 was 68.2 nM.

Q: And the EC50 (mPD-L1 K124A mCherry)?
A: The EC50 was 54.9 nM.

Q: What about the EC50 (mPD-L1 Y123R mCherry) of the same binder?
A: The EC50 was 7.7 nM.

Q: What about the EC50 (mPD-L1 R125A mCherry) of the same binder?
A: The EC50 was 20.2 nM.

B2: mB7-1 mIgG2a (Fc fusion)
chain: B1 chain
modifications: Cell-surface full-length mPD-L1 with a C-terminal mCherry (left out); limits are not given, so the mature chain 19-290 is used. The paper prints D28R, but residue 28 of Q9EP73 is Tyr. The only nearby Asp is D26, which lies at the PD-1 interface, so D28R is read as D26R. The paper's other PD-L1 numbers match the precursor numbering.
Q: With B2 as the binder, how does the EC50 (D28R) read?
A: Its EC50 is 18.8 nM.

B3: mPD-1 mIgG2a (Fc fusion)
chain: LEVPNGPWRSLTFYPAWLTVSEGANATFTCSLSNWSEDLMLNWNRLSPSNQTEKQAAFCNGLSQPVQDARFQIIQLPNRHDFHMNILDTRRNDSGIYLCGAISLHPKAKIEESPGAELVVTERILETSTRYPSPSPKPEGRFQGM
Q: What does the source list for B3?
A: EC50 (mPD-L1 G119D mCherry): 2 nM; EC50 (mPD-L1 G120D mCherry): 2.5 nM; EC50 (mPD-L1 K124A mCherry): 42.9 nM; EC50 (WT mPD-L1 mCherry): 1.8 nM; EC50 (mPD-L1 Y56A mCherry): 1.9 nM; EC50 (mPD-L1 R125A mCherry): 38.8 nM; EC50 (mPD-L1 D49R mCherry): 1.8 nM

B4: mPD-1 mIgG2a (Fc fusion)
chain: B3 chain
modifications: Cell-surface full-length mPD-L1 with a C-terminal mCherry (left out); limits are not given, so the mature chain 19-290 is used. The paper prints D28R, but residue 28 of Q9EP73 is Tyr. The only nearby Asp is D26, which lies at the PD-1 interface, so D28R is read as D26R. The paper's other PD-L1 numbers match the precursor numbering.
Q: With B4 as the binder, how does the EC50 (D28R) read?
A: The EC50 was 2.6 nM.
